Publication PMC9569990 (International Journal of Molecular Sciences, 2022)
One block for each binder: values may come before it.

How the values were obtained:
Test in all cases: SPR; cytokine immobilised on ProteOn GLH sensor chip by amine coupling (9,000-14,000 RU); S100P (wild type or mutant) as analyte, 62 nM-16 µM; 25 °C; 10 mM HEPES, 150 mM NaCl, 1 mM CaCl2, 0.05% TWEEN 20, pH 7.4; heterogeneous ligand model (two ligand populations), one-site model for IL-13; values averaged over analyte concentrations (n = 3-5)
Conditions in all cases: both partners purified
[1] = target: T1, Interleukin-31 (human, UniProt Q6EBC2 24-164)
T1 construct: Interleukin-31, human, UniProt Q6EBC2; see the manufacturer's catalogue number; also called IL-31; source: bought: PeproTech (source E. coli)
T1 sequence (looked up): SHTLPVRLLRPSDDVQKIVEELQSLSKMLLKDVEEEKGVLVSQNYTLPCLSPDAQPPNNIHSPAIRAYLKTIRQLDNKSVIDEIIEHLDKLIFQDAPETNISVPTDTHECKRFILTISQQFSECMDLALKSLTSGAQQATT

[2] = target: T2, Interleukin-13 (human, UniProt P35225 25-146)
T2 construct: Interleukin-13, human, UniProt P35225; see the manufacturer's catalogue number; also called IL-13; source: bought: PeproTech (source E. coli)

[3] = target: T3, Somatotropin (human, UniProt P01241 27-217)
T3 construct: Somatotropin (growth hormone), human, UniProt P01241; see the manufacturer's catalogue number; also called GH; growth hormone; source: bought: PeproTech (source E. coli)

[4] = target: T4, Interleukin-35 (human, UniProt P29459 23-219; Q14213 21-229)
T4 construct: the chain used for the SCOP family assignment; also called IL-35; source: bought: PeproTech (source HEK293)
T4 sequence (looked up) 1: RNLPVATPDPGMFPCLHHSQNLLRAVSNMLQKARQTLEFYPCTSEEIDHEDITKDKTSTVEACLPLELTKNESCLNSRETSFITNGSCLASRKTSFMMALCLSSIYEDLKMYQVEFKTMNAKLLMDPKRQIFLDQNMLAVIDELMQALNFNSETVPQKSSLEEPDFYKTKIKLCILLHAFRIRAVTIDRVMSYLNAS
T4 sequence (looked up) 2: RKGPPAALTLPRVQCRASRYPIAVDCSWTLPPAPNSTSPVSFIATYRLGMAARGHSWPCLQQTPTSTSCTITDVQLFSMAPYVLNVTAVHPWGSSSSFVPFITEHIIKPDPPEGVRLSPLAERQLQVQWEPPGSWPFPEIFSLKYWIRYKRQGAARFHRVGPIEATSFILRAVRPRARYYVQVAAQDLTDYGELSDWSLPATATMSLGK

[5] = target: T5, Prolactin (human, UniProt P01236 29-227)
T5 construct: Prolactin, human, UniProt P01236; see the manufacturer's catalogue number; also called PRL; source: bought: PeproTech (source E. coli)
T5 sequence (looked up): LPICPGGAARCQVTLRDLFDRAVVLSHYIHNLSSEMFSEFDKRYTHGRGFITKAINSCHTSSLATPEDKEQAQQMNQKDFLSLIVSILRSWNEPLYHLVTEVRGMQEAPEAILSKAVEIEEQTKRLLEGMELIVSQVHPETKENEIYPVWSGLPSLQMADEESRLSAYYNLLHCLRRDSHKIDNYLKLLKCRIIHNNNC

[6] = target: T6, Interleukin-15 (human, UniProt P40933 49-162)
T6 construct: Interleukin-15, human, UniProt P40933; see the manufacturer's catalogue number; also called IL-15; source: bought: PeproTech (source E. coli)

[7] = target: T7, Interleukin-10 (human, UniProt P22301 19-178)
T7 construct: Interleukin-10, human, UniProt P22301; see the manufacturer's catalogue number; also called IL-10; source: bought: PeproTech (source E. coli)
T7 sequence (P22301 19-178): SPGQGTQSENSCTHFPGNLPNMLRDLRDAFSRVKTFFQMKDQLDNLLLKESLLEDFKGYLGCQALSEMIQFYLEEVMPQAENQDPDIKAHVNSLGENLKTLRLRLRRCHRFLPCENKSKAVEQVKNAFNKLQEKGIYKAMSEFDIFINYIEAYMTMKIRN

T6 sequence (P40933 49-162): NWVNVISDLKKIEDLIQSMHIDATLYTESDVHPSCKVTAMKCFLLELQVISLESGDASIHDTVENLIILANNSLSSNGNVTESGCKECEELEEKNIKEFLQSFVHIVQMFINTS
T3 sequence (P01241 27-217): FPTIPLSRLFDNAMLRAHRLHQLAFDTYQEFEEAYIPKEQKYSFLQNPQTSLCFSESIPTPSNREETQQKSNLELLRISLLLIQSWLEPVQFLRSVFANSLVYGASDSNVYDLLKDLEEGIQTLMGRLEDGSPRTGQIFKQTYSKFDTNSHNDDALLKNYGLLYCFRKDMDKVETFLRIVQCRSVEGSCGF
T2 sequence (P35225 25-146): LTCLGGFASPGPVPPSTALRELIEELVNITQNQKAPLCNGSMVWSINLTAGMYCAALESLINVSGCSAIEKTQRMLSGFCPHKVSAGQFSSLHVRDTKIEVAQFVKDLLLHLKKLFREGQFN

Kd [1]: > 100 µM
Kd [2]: > 100 µM
Kd [3]: > 100 µM
Kd [4]: > 10 µM
Kd [5]: > 100 µM
Kd [6]: > 100 µM
Kd [7]: > 100 µM
B1: Human S100P mutant Δ42–47 (lacks PGFLQS sequence in the 'hinge') (natural protein)
chain: MTELETAMGMIIDVFSRYSGSEGSTQTLTKGELKVLMEKELGKDKDAVDKLLKDLDANGDAQVDFSEFIVFVAAITSACHKYFEKAGLK
notes: S100P protein, human, recombinant, with residues 42-47 (PGFLQS) deleted; source: E. coli, prepared as previously described [28]

Kd1 (heterogeneous ligand model, population 1) [1]: 202 nM
Kd2 (heterogeneous ligand model, population 2; column head printed as Kd1) [1]: 1.18 µM
Kd [2]: > 100 µM
Kd1 (heterogeneous ligand model, population 1) [3]: 29.2 µM
Kd2 (heterogeneous ligand model, population 2; column head printed as Kd1) [3]: 138 µM
Kd [4]: > 100 µM
Kd1 (heterogeneous ligand model, population 1) [5]: 689 nM
Kd2 (heterogeneous ligand model, population 2; column head printed as Kd1) [5]: 3.12 µM
Kd1 (heterogeneous ligand model, population 1) [6]: 157 nM
Kd2 (heterogeneous ligand model, population 2; column head printed as Kd1) [6]: 283 nM
Kd1 (heterogeneous ligand model, population 1) [7]: 4.74 µM
Kd2 (heterogeneous ligand model, population 2; column head printed as Kd1) [7]: 6.05 µM
B2: Human S100P mutant F89A (natural protein)
chain: MTELETAMGMIIDVFSRYSGSEGSTQTLTKGELKVLMEKELPGFLQSGKDKDAVDKLLKDLDANGDAQVDFSEFIVFVAAITSACHKYAEKAGLK
notes: S100P protein, human, recombinant, with F89A; source: E. coli, prepared as previously described [28]
